Ends that are not written are not given here.

Sequences and labels used below:
T1: CRF2R
T1 sequence (Q13324 whole entry, species assumed, looked up): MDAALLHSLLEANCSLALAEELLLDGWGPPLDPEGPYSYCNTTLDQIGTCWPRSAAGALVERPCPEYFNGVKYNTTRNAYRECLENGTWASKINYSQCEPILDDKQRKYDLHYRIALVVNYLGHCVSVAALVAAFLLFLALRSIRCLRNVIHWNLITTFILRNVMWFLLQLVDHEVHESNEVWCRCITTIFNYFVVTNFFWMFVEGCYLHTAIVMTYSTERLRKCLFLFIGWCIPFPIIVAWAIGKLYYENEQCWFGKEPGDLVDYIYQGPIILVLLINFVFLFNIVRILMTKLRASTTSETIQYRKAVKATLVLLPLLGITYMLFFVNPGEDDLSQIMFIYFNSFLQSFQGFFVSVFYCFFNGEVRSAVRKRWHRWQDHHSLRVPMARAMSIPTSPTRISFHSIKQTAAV

The target of the first assay is T1, CRF2R. Briefly: cell-based or functional assay.
IVLSLDVPIGLLQILLEQEKQEAAREQATTNARILARV-NH2 [SEQ ID NO 125]: the “CRF2R EC50” value worked out at 4.47 nM and the “CRF2R Emax” value was found to be 99%.

For the molecule IVLSLEVPIGLLQILLEQARARAAREQATTNARILARV-NH2 [SEQ ID NO 120], the “CRF2R EC50” value amounted to 69.9 nM and the “CRF2R Emax” value is 100%.

Take IVLSLDVPIGLLQILLEQEKQRAAREQATTNARILARV-NH2 [SEQ ID NO 115]: the “CRF2R EC50” value came to 13.6 nM and the “CRF2R Emax” value came out at 98%.

Take IVLSLDVPIGLLQILLEQTKARAAREQATTNARILARV-NH2 [SEQ ID NO 117]: the “CRF2R EC50” value turned out to be 9.41 nM.

On to IVLSLDVPIGLLQILLEQERQEAAREQATTNARILARV-NH2 [SEQ ID NO 118], for which the “CRF2R EC50” value was determined as 14.6 nM and the “CRF2R Emax” value was 100%.

Consider IVLSLDVPIGLLQILLEQARADAAREQATTNARILARV-NH2 [SEQ ID NO 130], for which the “CRF2R EC50” value turned out to be 8.57 nM and the “CRF2R Emax” value was 92%.

For the molecule IVLSLDVPIGLLQILLEQTRADAAREQATTNARILARV-NH2 [SEQ ID NO 126], the “CRF2R EC50” value came to 13 nM and the “CRF2R Emax” value was 91%.

For IVLSLDVPIGLLQILLEQAKQEAAREQATTNARILARV-NH2 [SEQ ID NO 124], the “CRF2R EC50” value came out at 3.49 nM and the “CRF2R Emax” value was 94%.

Turning to IVLSLDVPIGLLQILLEQAARAAREQATTNARILARV-NH2 [SEQ ID NO 135], the “CRF2R EC50” value is over 100 nM and the “CRF2R Emax” value came out at 76%.

In the case of IVLSLDVPIGLLQILLEQTKARAAREQATTNARILARV-NH2 [SEQ ID NO 129], the “CRF2R EC50” value came to 3.83 nM.

Consider IVLSLDVPIGLLQILLEQAKARAAREQATTNARILARV-NH2 [SEQ ID NO 127], for which the “CRF2R EC50” value worked out at 7.79 nM.

Turning to IVLSLDVPIGLLQILLEQRRAAREQATTNARILARV-NH2 [SEQ ID NO 133], the “CRF2R EC50” value turned out to be 12.2 nM and the “CRF2R Emax” value was 88%.

As for ZGPPISIDLPFQLLRKMIEIEKQEKEKQQATNNRLLLATV (C-terminal amide) [SEQ ID NO 12], the “CRF2R EC50” value amounted to 9.72 nM and the “CRF2R Emax” value was found to be 91%.

Regarding ZGPPISIDLPFQLLRKMIEIEKQEKEKQQATTNRLLLDTI (C-terminal amide) [SEQ ID NO 13], the “CRF2R EC50” value is 3.88 nM and the “CRF2R Emax” value worked out at 79%.

With ZGPPISIDLPFQLLRKMIEIEKQEKEKQQATNNRLLLDTI (C-terminal amide) [SEQ ID NO 14], the “CRF2R EC50” value is 6.33 nM and the “CRF2R Emax” value came to 90%.

For the molecule IVLSLDVPIGLLQILLEQRAAREQATTNARILARV-NH2 [SEQ ID NO 136], the “CRF2R EC50” value worked out at 23.4 nM and the “CRF2R Emax” value was determined as 68%.

On to IVLSLDVPIGLLQILLEQAAAAREQATTNARILARV-NH2 [SEQ ID NO 134], for which the “CRF2R EC50” value was over 100 nM and the “CRF2R Emax” value stood at 19%.

On to IVLSLDVPIGLLQILLEQTKANAAREQATTVARILARV-NH2 [SEQ ID NO 116], for which the “CRF2R EC50” value was 100 nM and the “CRF2R Emax” value turned out to be 26.4%.

In the case of IVLSLDVPIGLLQILLEQEKEKKRKETNARILARV-NH2 [SEQ ID NO 132], the “CRF2R EC50” value was found to be 7.53 nM and the “CRF2R Emax” value was 88%.

For IVLSLDVPIGLLQILLEQARQEAAREQATTNARILARV-NH2 [SEQ ID NO 123], the “CRF2R EC50” value was 3.49 nM and the “CRF2R Emax” value was determined as 93.8%.

On to IVLSLDVPIGLLQILLEQARAEAAREQATTNARILARV-NH2 [SEQ ID NO 122], for which the “CRF2R EC50” value came out at 3.31 nM and the “CRF2R Emax” value was 97%.

Regarding IVLSLDVPIGLLQILLEQTRARAAREQATTNARILARV-NH2 [SEQ ID NO 128], the “CRF2R EC50” value amounted to 2.85 nM and the “CRF2R Emax” value was found to be 98%.

For the molecule IVLSLDVPIGLLQILLEQAKADAAREQATTNARILARV-NH2 [SEQ ID NO 131], the “CRF2R EC50” value was 5.25 nM and the “CRF2R Emax” value was determined as 91%.

In the case of IVLSLDVPIGLLQILLEQERARAAREQATTNARILARV-NH2 [SEQ ID NO 119], the “CRF2R EC50” value was 3.57 nM and the “CRF2R Emax” value came out at 95%.

For a further assay, the target named is CRF1R. As to the kind of experiment: cell-based or functional assay.
For IVLSLDVPIGLLQILLEQEKQEAAREQATTNARILARV-NH2 [SEQ ID NO 125], the “CRF1R EC50” value is over 100 nM and the “CRF1R Emax” value was found to be 9%.

Consider IVLSLEVPIGLLQILLEQARARAAREQATTNARILARV-NH2 [SEQ ID NO 120], for which the “CRF1R EC50” value amounted to 100 nM and the “CRF1R Emax” value was 7%.

In the case of IVLSLDVPIGLLQILLEQEKQRAAREQATTNARILARV-NH2 [SEQ ID NO 115], the “CRF1R EC50” value was over 100 nM and the “CRF1R Emax” value came out at 7%.

In the case of IVLSLDVPIGLLQILLEQTKARAAREQATTNARILARV-NH2 [SEQ ID NO 117], the “CRF1R EC50” value stood at 100 nM.

On to IVLSLDVPIGLLQILLEQERQEAAREQATTNARILARV-NH2 [SEQ ID NO 118], for which the “CRF1R EC50” value was over 100 nM and the “CRF1R Emax” value turned out to be 5%.

Regarding IVLSLDVPIGLLQILLEQARADAAREQATTNARILARV-NH2 [SEQ ID NO 130], the “CRF1R EC50” value is over 100 nM and the “CRF1R Emax” value came to 9%.

As to IVLSLDVPIGLLQILLEQTRADAAREQATTNARILARV-NH2 [SEQ ID NO 126], the “CRF1R EC50” value is over 100 nM and the “CRF1R Emax” value came out at 7%.

For the molecule IVLSLDVPIGLLQILLEQAKQEAAREQATTNARILARV-NH2 [SEQ ID NO 124], the “CRF1R EC50” value is over 100 nM and the “CRF1R Emax” value worked out at 6%.

Regarding IVLSLDVPIGLLQILLEQAARAAREQATTNARILARV-NH2 [SEQ ID NO 135], the “CRF1R EC50” value is over 100 nM and the “CRF1R Emax” value turned out to be 6%.

Consider IVLSLDVPIGLLQILLEQTKARAAREQATTNARILARV-NH2 [SEQ ID NO 129], for which the “CRF1R EC50” value was over 100 nM.

IVLSLDVPIGLLQILLEQAKARAAREQATTNARILARV-NH2 [SEQ ID NO 127]: the “CRF1R EC50” value was over 100 nM.

As for IVLSLDVPIGLLQILLEQRRAAREQATTNARILARV-NH2 [SEQ ID NO 133], the “CRF1R EC50” value was over 100 nM and the “CRF1R Emax” value was found to be 4%.

Turning to ZGPPISIDLPFQLLRKMIEIEKQEKEKQQATNNRLLLATV (C-terminal amide) [SEQ ID NO 12], the “CRF1R EC50” value was 928 nM and the “CRF1R Emax” value was 73%.

ZGPPISIDLPFQLLRKMIEIEKQEKEKQQATTNRLLLDTI (C-terminal amide) [SEQ ID NO 13]: the “CRF1R EC50” value turned out to be 97.7 nM and the “CRF1R Emax” value was 69%.

As to ZGPPISIDLPFQLLRKMIEIEKQEKEKQQATNNRLLLDTI (C-terminal amide) [SEQ ID NO 14], the “CRF1R EC50” value came out at 109 nM and the “CRF1R Emax” value was determined as 92%.

Consider IVLSLDVPIGLLQILLEQRAAREQATTNARILARV-NH2 [SEQ ID NO 136], for which the “CRF1R EC50” value was over 100 nM and the “CRF1R Emax” value amounted to 8%.

For the molecule IVLSLDVPIGLLQILLEQAAAAREQATTNARILARV-NH2 [SEQ ID NO 134], the “CRF1R EC50” value was over 100 nM and the “CRF1R Emax” value is 7%.

As for IVLSLDVPIGLLQILLEQTKANAAREQATTVARILARV-NH2 [SEQ ID NO 116], the “CRF1R EC50” value is 100 nM and the “CRF1R Emax” value amounted to 4.8%.

For the molecule IVLSLDVPIGLLQILLEQEKEKKRKETNARILARV-NH2 [SEQ ID NO 132], the “CRF1R EC50” value is over 100 nM and the “CRF1R Emax” value is 8%.

For the molecule IVLSLDVPIGLLQILLEQARQEAAREQATTNARILARV-NH2 [SEQ ID NO 123], the “CRF1R EC50” value was over 1000 nM and the “CRF1R Emax” value amounted to 9.6%.

As for IVLSLDVPIGLLQILLEQARAEAAREQATTNARILARV-NH2 [SEQ ID NO 122], the “CRF1R EC50” value was 1000 nM and the “CRF1R Emax” value was determined as 10.7%.

As to IVLSLDVPIGLLQILLEQTRARAAREQATTNARILARV-NH2 [SEQ ID NO 128], the “CRF1R EC50” value was over 100 nM and the “CRF1R Emax” value came to 8%.

Regarding IVLSLDVPIGLLQILLEQAKADAAREQATTNARILARV-NH2 [SEQ ID NO 131], the “CRF1R EC50” value is over 100 nM and the “CRF1R Emax” value amounted to 8%.

Consider IVLSLDVPIGLLQILLEQERARAAREQATTNARILARV-NH2 [SEQ ID NO 119], for which the “CRF1R EC50” value was over 100 nM and the “CRF1R Emax” value was found to be 3%.
